Positions count from the first letter of the chain named.

Here are results for two molecules from patent US20250066499A1 (SUNSHINE GUOJIAN PHARMACEUTICAL SHANGHAI, published 2025).

The target of assay [1] is T1, CD73-ND-his (human, UniProt P21589 27-317).
T1 construct: Biotinylated and captured on streptavidin in the ELISA
T1 sequence: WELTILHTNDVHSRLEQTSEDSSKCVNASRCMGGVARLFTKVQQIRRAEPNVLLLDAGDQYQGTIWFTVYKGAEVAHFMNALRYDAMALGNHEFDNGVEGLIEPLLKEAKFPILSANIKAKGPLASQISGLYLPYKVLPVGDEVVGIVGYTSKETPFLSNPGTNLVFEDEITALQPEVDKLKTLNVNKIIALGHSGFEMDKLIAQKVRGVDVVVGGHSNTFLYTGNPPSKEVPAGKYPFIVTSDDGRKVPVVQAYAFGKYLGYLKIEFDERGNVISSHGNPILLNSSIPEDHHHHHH
Kind of assay: ELISA as in Example 3, antigen CD73-ND-his, antibody titrated, absorbance 450 nm. Background: In an ELISA, binding on a coated surface is turned into a signal by an enzyme label.

Assay [2] has as its target T2, CD73-ND-P139A (human, UniProt P21589 27-317).
T2 construct: Alanine mutant of CD73-ND
T2 sequence: T1 sequence with P139A
Kind of assay: ELISA, high plateau value (OD 450 nm). On the procedure:
(§1) The ELISA plates were coated with SA protein diluted to 1.5 μg/mL in coating buffer (50 mM carbonate coating buffer, pH 9.6) and incubated overnight at 4° C. The supernatant was discarded, and the plates were washed three times with PBST. Then, 5% skimmed milk powder prepared with PBS was added for blocking and the plates were incubated for 2 h at 37° C. After washing the plates once with PBST, CD73-biotin protein (prepared by biotinylating CD73-His protein according to the EZ-Link NHS-Biotin Reagent instructions) was diluted to 0.5 μg/mL and added at 100 μL/well for incubation at room temperature for 1 h. The plates were washed three times with PBST, and the prepared murine-derived monoclonal antibodies against human CD73 were serially diluted with 1% BSA buffer prepared with PBST and added to the ELISA plates at 100 μl/well. The plates were incubated at 37° C. for 1 h. After washing the plates three times with PBST, HRP-labeled goat anti-mouse IgG secondary antibody was added and the plates were incubated for 30 min at 37° C. After washing the plates three times with PBST, the residual droplets were patted dry on absorbent paper as much as possible. Then, 100 μl of TMB color developing solution was added to each well, and the plates were incubated in the dark at room temperature for 5 min for color development. Subsequently, 50 μl of 2M H₂SO₄ stop solution was added to each well to terminate the substrate reaction. The OD values were read at 450 nm using a multimode microplate reader to analyze the binding ability of the tested antibodies to the target antigen human CD73-His.
(§2) Referring to the experimental method in Example 3, the affinity of 48A11-HuV33 for various mutant proteins of CD73-ND was determined. The SA protein was diluted to 1 μg/mL for coating the ELISA plates, and the biotinylated CD73 protein (CD73-biotin) was used at a concentration of 0.1 μg/mL.

Assay [3] has as its target T3, CD73-ND-V140A (human, UniProt P21589 27-317).
T3 construct: Alanine mutant of CD73-ND
T3 sequence: T1 sequence with V140A
Put plainly: ELISA, high plateau value (OD 450 nm). The method, then:
as §1, §2

The target in assay [4] is T2, CD73-ND-P139A. Kind of assay: ELISA; decline multiple of Top against CD73-ND. On the procedure:
as §1, §2

In assay [5] the target is T1, CD73-ND-his. Kind of assay: ELISA, biotinylated antigen on streptavidin plate. The method, then: as §1, §2
For assay [6], the target named is T4, CD73-ND-V186A (human, UniProt P21589 27-317).
T4 construct: Alanine mutant of CD73-ND
T4 sequence: T1 sequence with V186A
Put plainly: ELISA, biotinylated antigen on streptavidin plate. The method, then: as §1, §2

The target in assay [7] is T5, CD73-ND-N187A (human, UniProt P21589 27-317).
T5 construct: Alanine mutant of CD73-ND
T5 sequence: T1 sequence with N187A
Put plainly: ELISA, biotinylated antigen on streptavidin plate. The method, then: as §1, §2

B1: 56B10-HuV31 (antibody, human IgG4, V domains shown)
VH: QVQLQQSGAEVKKPGASVKVSCKASGYTFTRYYIYWVRQRPGQGLEWIGWIYPGNFNTKYNEKFKGRATLTADTSASTAYMELSSLTSEDTAVYYCARDVYDYAGFAYWGQGTLVTVSS
VL: DIQLTQSPSFLSASVGDRVTITCKASQGVATAVAWYQQKPGQSPKLLIYWASTRHTGVPDRFSGSGSGTEFTLTISSLQPEDFATYYCQQYSSYPWTFGQGTKVEIK
notes: Humanized
For B1, the EC50 (read off the curve) (usually the concentration needed to bring the measured effect to its halfway point) in assay [1] was approximately 0.08 nM.

B2: 48A11-HuV33 (antibody, human IgG4, V domains shown)
VH: QVQLVQSGAEVKKPGASVKVSCKASGYTFTSYWMHWVRQAPGQGLEWIGEINPSIGRTNYNEKFKSRVTLTRDTSTSTAYMELSSLRSEDTAVYYCARRVYGTMDYWGQGTLVTVSS
VL: DIQMTQSPSSLSASVGDRVTITCKASQDINSYLSWFQQKPGKSPKLLIYRANIWVDGVPSRFSGSGSGQDYTFTISSLQPEDIATYYCLQYDELYTFGQGTKVEIK
notes: Humanized
Take B2: the Top in assay [2] worked out at 0.871; in assay [3], 2.05. Besides, the “Ratio(Top)” value in assay [4] turned out to be 2.3 fold. For the same molecule, the half-maximal effective concentration (EC50) (in general, the concentration at which the effect is half-maximal) stood at 0.091 nM in assay [5], 0.16 nM in assay [6] and 0.105 nM in assay [7].
